Assay [1] addresses IgE on basophils of allergic donors (human) (UniProt P01854). As to the kind of experiment: cell-based or functional assay.
The target is the same in assay [2]. As to the kind of experiment: IgE surface stain on donor basophils after 1 µM sdAb, flow cytometry. On the technique in general: Flow cytometry measures light scatter and fluorescence of single cells or particles in a stream.
Assay [3] has as its target mixture of three Der p 2 specific recombinant human IgE clones H10, H12, P4E (human) (UniProt P01854). Briefly: RBL-SX38 IgE displacement, FACS.
Assay [4] deals with IgE on basophils of allergic donors (human) (UniProt P01854). Briefly: displacement of IgE from FcεRI on basophils, whole blood of an allergic donor, flow cytometry of surface IgE [panel C].
Chain of IgE on basophils of allergic donors (human) (P01854 1-428): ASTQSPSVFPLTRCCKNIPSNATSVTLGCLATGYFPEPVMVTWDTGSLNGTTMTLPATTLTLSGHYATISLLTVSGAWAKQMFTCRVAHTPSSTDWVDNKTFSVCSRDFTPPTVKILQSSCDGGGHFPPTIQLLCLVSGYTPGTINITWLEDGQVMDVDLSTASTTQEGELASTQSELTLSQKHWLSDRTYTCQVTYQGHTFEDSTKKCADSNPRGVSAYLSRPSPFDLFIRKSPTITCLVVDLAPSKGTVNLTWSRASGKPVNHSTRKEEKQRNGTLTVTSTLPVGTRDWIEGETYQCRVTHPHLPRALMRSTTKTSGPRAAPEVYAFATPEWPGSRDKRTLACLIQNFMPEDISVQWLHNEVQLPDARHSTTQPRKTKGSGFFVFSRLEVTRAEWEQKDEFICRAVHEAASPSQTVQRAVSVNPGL
Assay [5] has the same target. Briefly: displacement of IgE from FcεRI on basophils, whole blood of an allergic donor, flow cytometry of surface IgE [panel B].
Assay [6] shares this target. Briefly: IgE surface stain on donor basophils, flow cytometry.

Chain of mixture of three Der p 2 specific recombinant human IgE clones H10, H12, P4E (human) (P01854 other isoform, or with tags, fused parts or gaps): as the sequence (P01854 1-428) above, with L428K counted along it

B1: sdAb A1 (VHH)
VHH: EVQLLESGGGLVQPGGSLRLSCAASGFTFGNYDMAWVRQAPGKRPEWVSSIDTGGDITHYADSVKGRFTISRDNAKNTLYLQMNSLRPEDTAVYWCATDEEYALGPNEFDYYGQGTLVTVSS
For B1, the fold decrease in rDerp2-induced activation of basophils of a HDM allergic donor (% CD63 pos basophils) in assay [1] came out at 10 fold. Further, the displacement effect measured by IgE expression in assay [2] was 16%. Also, in assay [3], the Max effect/effect 1 µM was 40%.

B2: CIgG4B1A1(G4S3) (Fc fusion)
chain 1: GPPCPPCPAPEFLGGPSVFLFPPKPKDTLMISRTPEVTCVVVDVSQEDPEVQFNWYVDGVEVHNAKTKPREEQFNSTYRVVSVLTVLHQDWLNGKEYKCKVSNKGLPSSIEKTISKAKGQPREPQVYTLPPCQEEMTKNQVSLWCLVKGFYPSDIAVEWESNGQPENNYKTTPPVLDSDGSFFLYSRLTVDKSRWQEGNVFSCSVMHEALHNHYTQKSLSLSLGKGGGGSGGGGSGGGGSQVQLQESGGGLVQTGGSLRLSCAVHGRTFSNTGMGWFRQAPGNERQFVAIISPSGTSTYYADSVKGRFTISRDPAKNTVYLQMNSLKMDDTAVYYCAASYGSNWSTLRHQRRNEYDAWGQGTQVAVS
chain 2: GPPCPPCPAPEFLGGPSVFLFPPKPKDTLMISRTPEVTCVVVDVSQEDPEVQFNWYVDGVEVHNAKTKPREEQFNSTYRVVSVLTVLHQDWLNGKEYKCKVSNKGLPSSIEKTISKAKGQPREPQVCTLPPSQEEMTKNQVSLSCAVKGFYPSDIAVEWESNGQPENNYKTTPPVLDSDGSFFLVSRLTVDKSRWQEGNVFSCSVMHEALHNHYTQKSLSLSLGKGGGGSGGGGSGGGGSEVQLLESGGGLVQPGGSLRLSCAASGFTFGNYDMAWVRQAPGKRPEWVSSIDTGGDITHYADSVKGRFTISRDNAKNTLYLQMNSLRPEDTAVYWCATDEEYALGPNEFDYYGQGTLVTVSS
In turn, B2 returned an EC50 (read off the curve) in assay [4] of 4 nM. The EC50 (read off the curve) in assay [5] was found to be 6 nM. In assay [3], the concentration for a half-maximal effect (EC50) is 14.1 nM and the Max effect/effect 1 µM turned out to be 99%.

B3: A2+B1 (protein)
VHH 1: EVQLLESGGGLVQPGGSLRLSCAASGFRFGNYDMAWVRQAPGKRYEWVSSIDTGGDITHYADSVKGRFTISRDNAKNTLYLQMNSLRPEDTAEYWCATDEEYALGPNEFDYYGQGTLVTVS
VHH 2: QVQLQESGGGLVQTGGSLRLSCAVHGRTFSNTGMGWFRQAPGNERQFVAIISPSGTSTYYADSVKGRFTISRDPAKNTVYLQMNSLKMDDTAVYYCAASYGSNWSTLRHQRRNEYDAWGQGTQVAVS
In assay [6], B3 registered a displacement effect on IgE surface expression of 100%.

B4: sdAb A2 (VHH)
VHH: EVQLLESGGGLVQPGGSLRLSCAASGFRFGNYDMAWVRQAPGKRYEWVSSIDTGGDITHYADSVKGRFTISRDNAKNTLYLQMNSLRPEDTAEYWCATDEEYALGPNEFDYYGQGTLVTVS
As for B4, the displacement effect on IgE surface expression in assay [6] is 70%.

B5: A2+B2 (protein)
VHH 1: EVQLLESGGGLVQPGGSLRLSCAASGFRFGNYDMAWVRQAPGKRYEWVSSIDTGGDITHYADSVKGRFTISRDNAKNTLYLQMNSLRPEDTAEYWCATDEEYALGPNEFDYYGQGTLVTVS
VHH 2: QVQLVESGGGLVQAGGSLRLSCAVFGSTFSNNVADWYRQAPGKQRELVARISASGATREYGDSVKGRFTISRDDAKNTMYLQMNNLKPEDTAVYRCHKIEWEDLSRKDYWGQGTQVTVS
The molecule B5 showed a displacement effect on IgE surface expression in assay [6] of 100%.

B6: A2+B3 (protein)
VHH 1: EVQLLESGGGLVQPGGSLRLSCAASGFRFGNYDMAWVRQAPGKRYEWVSSIDTGGDITHYADSVKGRFTISRDNAKNTLYLQMNSLRPEDTAEYWCATDEEYALGPNEFDYYGQGTLVTVS
VHH 2: DVQLQESGGGLVQAGGSLRLSCAASGFIFRLAGMSWVRQAPGKGFEWVSGITMDGSTTNYADSVKGRFTISRDNSKNRLYLQMNSLKPEDTAVYYCARGAKGGYNDPRGQGTQVTVS
Regarding B6, the displacement effect on IgE surface expression in assay [6] is 70%.

B7: CIgG4B1A1(G4S)1 (Fc fusion)
chain 1: GPPCPPCPAPEFLGGPSVFLFPPKPKDTLMISRTPEVTCVVVDVSQEDPEVQFNWYVDGVEVHNAKTKPREEQFNSTYRVVSVLTVLHQDWLNGKEYKCKVSNKGLPSSIEKTISKAKGQPREPQVYTLPPCQEEMTKNQVSLWCLVKGFYPSDIAVEWESNGQPENNYKTTPPVLDSDGSFFLYSRLTVDKSRWQEGNVFSCSVMHEALHNHYTQKSLSLSLGKGGGGSQVQLQESGGGLVQTGGSLRLSCAVHGRTFSNTGMGWFRQAPGNERQFVAIISPSGTSTYYADSVKGRFTISRDPAKNTVYLQMNSLKMDDTAVYYCAASYGSNWSTLRHQRRNEYDAWGQGTQVAVS
chain 2: GPPCPPCPAPEFLGGPSVFLFPPKPKDTLMISRTPEVTCVVVDVSQEDPEVQFNWYVDGVEVHNAKTKPREEQFNSTYRVVSVLTVLHQDWLNGKEYKCKVSNKGLPSSIEKTISKAKGQPREPQVCTLPPSQEEMTKNQVSLSCAVKGFYPSDIAVEWESNGQPENNYKTTPPVLDSDGSFFLVSRLTVDKSRWQEGNVFSCSVMHEALHNHYTQKSLSLSLGKGGGGSEVQLLESGGGLVQPGGSLRLSCAASGFTFGNYDMAWVRQAPGKRPEWVSSIDTGGDITHYADSVKGRFTISRDNAKNTLYLQMNSLRPEDTAVYWCATDEEYALGPNEFDYYGQGTLVTVSS
With B7, the EC50 (read off the curve) in assay [4] and in assay [5] was 4 nM each time. For the same molecule, the EC50 in assay [3] was found to be 22.4 nM. Also, in assay [3], the Max effect/effect 1 µM was found to be 99%.

B8: CIgG4B1A1(G4S)2 (Fc fusion)
chain 1: GPPCPPCPAPEFLGGPSVFLFPPKPKDTLMISRTPEVTCVVVDVSQEDPEVQFNWYVDGVEVHNAKTKPREEQFNSTYRVVSVLTVLHQDWLNGKEYKCKVSNKGLPSSIEKTISKAKGQPREPQVYTLPPCQEEMTKNQVSLWCLVKGFYPSDIAVEWESNGQPENNYKTTPPVLDSDGSFFLYSRLTVDKSRWQEGNVFSCSVMHEALHNHYTQKSLSLSLGKGGGGSGGGGSQVQLQESGGGLVQTGGSLRLSCAVHGRTFSNTGMGWFRQAPGNERQFVAIISPSGTSTYYADSVKGRFTISRDPAKNTVYLQMNSLKMDDTAVYYCAASYGSNWSTLRHQRRNEYDAWGQGTQVAVS
chain 2: GPPCPPCPAPEFLGGPSVFLFPPKPKDTLMISRTPEVTCVVVDVSQEDPEVQFNWYVDGVEVHNAKTKPREEQFNSTYRVVSVLTVLHQDWLNGKEYKCKVSNKGLPSSIEKTISKAKGQPREPQVCTLPPSQEEMTKNQVSLSCAVKGFYPSDIAVEWESNGQPENNYKTTPPVLDSDGSFFLVSRLTVDKSRWQEGNVFSCSVMHEALHNHYTQKSLSLSLGKGGGGSGGGGSEVQLLESGGGLVQPGGSLRLSCAASGFTFGNYDMAWVRQAPGKRPEWVSSIDTGGDITHYADSVKGRFTISRDNAKNTLYLQMNSLRPEDTAVYWCATDEEYALGPNEFDYYGQGTLVTVSS
For the molecule B8, the results for the EC50 (read off the curve) in assay [4] and in assay [5] were 3 nM and 4 nM, respectively. Moreover, the EC50 in assay [3] was determined as 19.5 nM. In addition, in assay [3], the Max effect/effect 1 µM came out at 99%.

A word on the EC50 (read off the curve): it is the concentration giving half of the maximal effect. For orientation: EC50 means the concentration at which the effect is half-maximal.

Values taken from patent US20250171562A1.
